Measurements as given in publication PMC7591906, “pHLIP ICG for delineation of tumors and blood flow during fluorescence-guided surgery” (Scientific Reports, 2020).
“Also recorded” adds a separate entry of the source. Peptide text beside a SMILES is read from it. * marks the point of attachment. X1 = CC1(C)C(/C=C/C=C/C=C/C=C2/N(CCCCCC(=O)NCCN3C(=O)CC(*)C3=O)c3ccc4ccccc4c3C2(C)C)=[N+](CCCCS(=O)(=O)[O-])c2ccc3ccccc3c21

Legend:
[1] = Peripheral blood micronucleus test in rats (GLP); assay type: in vivo, Sprague Dawley rats
Protocol: The objective of this GLP study performed at CRL was to determine the potential genotoxicity of pHLIP ICG when given by i.v. bolus injection to rats using the peripheral blood micronucleus test.
In order to determine the maximum tolerated dose, a dose-range finding test was performed prior to the main test, where male and female rats (3 animals/sex) were administered a single dose of pHLIP ICG by i.v. injection. The doses evaluated were 14 mg/kg and 25 mg/kg using 5% EtOH in PBS, pH 7.4 as the vehicle.
Blood was collected for micronuclei evaluation at 45 hours post-dose (Groups 3 to 7), and 69 hours post-dose (Groups 3 and 7). The proportion of immature erythrocytes among total erythrocytes in the peripheral blood (%RETs) and the percentage of micronucleated reticulocytes (%MN-RETs) in the NC group were within the laboratory historical negative control range. […] The results from both NC and PC groups confirmed the validity of the assay.

[2] = test system: MDA-MB-231, 4T1, A549, LLC, M4A4, HeLa, UM-UC3 and LNCaP tumors; assay: Tumor targeting, NIR fluorescence imaging in different tumor models; assay type: in vivo, athymic female nude mice; settings: 24 h after single i.v. 0.5 mg/kg, 8 tumor models, Stryker clinical imaging system, skin removed
Protocol: Targeting of murine and human tumors was shown in 8 different tumor models in athymic female nude mice (strain Hsd Athymic Nude-Foxn1nu) ranging in age from 5 to 6 weeks (obtained from Envigo RMS, Inc). The following tumors were established by subcutaneous injection of 1 x 10^6 cells/0.1 ml/flank in flanks of athymic nude mice: HeLa (humans cervical adenocarcinoma), M4A4 (human epithelial carcinoma), 4T1 (murine breast tumor), A549 (human lung carcinoma), LLC (murine Lewis Lung carcinoma), UM-UC3 (human urinary bladder cancer), and 4 x 10^6 cells/0.1 ml/flank of LNCaP tumor (human prostate cancer). Human MDA-MB-231 (breast adenocarcinoma) tumors were established by injections of 1 x 10^6 cells/0.05 ml in the mammary fat pad. […] Finally, surgery was carried out under fluorescence-guidance to remove tumor and to image the tumor bed using the Stryker SPY-PHI handheld clinical imaging system.

[3] = test system: 86 enzyme and receptor targets; assay: Safety pharmacology profiling, enzyme and receptor binding panel (Eurofins Panlabs); settings: 2 µM; all targets except progesterone receptor B
Protocol: The pHLIP ICG enzyme binding assays were performed by Eurofins Panlabs, Inc. according to standard assay protocols. […] The most significant inhibitory effect of pHLIP ICG was observed on progesterone B and was followed by an additional study to identify IC50 values, which were determined by a non-linear least square regression analysis using MathIQTM (ID Business Solutions Ltd., UK). The Ki values were calculated by the equation from Cheng and Prusoff [Cheng, Y., Prusoff, W.H., Biochem. Pharmacol. 22:3099-3108, 1973] using the observed IC50 of pHLIP ICG , the concentration of radioligand employed in the assay, and the historical values for the KD of the ligand (Eurofins Panlabs data). The Hill coefficient (nH), defining the slope of the competitive binding curve, was calculated using MathIQTM. […]

[4] = Biodistribution, %ID/g estimated from tissue/organ homogenates; assay type: in vivo, BALB/c mice; settings: BALB/c, mouse, small and large intestines, bone, skin, muscle, prostate, iv, 0.5 mg/kg; all time points; estimate; read-out: Amount in small and large intestines, bone, skin and muscle (and prostate)
Protocol: The fluorescence signals in organs and tissue were also measured in the tissue/organ homogenates and compared with the signals from the control tissue/organ homogenates (collected from control mice) mixed with known amounts of pHLIP ICG. Samples of about 100 mg of tissue were homogenized with 2.5x (about 250 µL) volumes of DMSO using BioMasher II disposable homogenizers (DiagnoCine, LLC). 30 µl of each homogenate was placed into a 384-well plate and imaged using an Odyssey IR scanner (Li-Cor Biosciences). Tissue homogenates of control mice mixed with known concentrations of pHLIP ICG were used to establish the calibration curve.

[5] = male rats, single i.v. 6.25, 12.5 and 25 mg/kg

CC(C)C[C@H](NC(=O)[C@H](Cc1ccc(O)cc1)NC(=O)[C@H](C)NC(=O)[C@H](CCCNC(=N)N)NC(=O)[C@H](Cc1c[nH]c2ccccc12)NC(=O)[C@@H]1CCCN1C(=O)[C@H](CC(N)=O)NC(=O)[C@H](CCC(N)=O)NC(=O)[C@H](CC(=O)O)NC(=O)[C@H](CC(=O)O)NC(=O)[C@H](CSC1CC(=O)N(CCNC(=O)CCCCCN2/C(=C/C=C/C=C/C=C/C3=[N+](CCCCS(=O)(=O)[O-])c4ccc5ccccc5c4C3(C)C)C(C)(C)c3c2ccc2ccccc32)C1=O)NC(=O)[C@H](C)N)C(=O)N[C@@H](CC(=O)O)C(=O)N[C@@H](CC(C)C)C(=O)N[C@@H](CC(C)C)C(=O)N[C@@H](Cc1ccccc1)C(=O)N1CCC[C@H]1C(=O)N[C@H](C(=O)N[C@@H](CC(=O)O)C(=O)N[C@H](C(=O)N[C@@H](CC(C)C)C(=O)N[C@@H](CC(C)C)C(=O)N[C@@H](CC(C)C)C(=O)N[C@@H](CC(=O)O)C(=O)N[C@@H](CC(C)C)C(=O)N[C@@H](CC(C)C)C(=O)N[C@@H](Cc1c[nH]c2ccccc12)C(=O)N[C@@H](C)C(=O)O)[C@@H](C)O)[C@@H](C)O (stereo partly drawn) [pHLIP ICG] (H-AC(X1)DDQNPWRAYLDLLFPTDTLLLDLLWA-OH)
Genotoxic activity (%MN-RETs) [1, 5]: did not induce cytogenetic damage; also recorded: showed no evidence of genotoxic activity | Reduction in %RETs (cytotoxicity) [1, 5]: No substantial reduction | Clinical signs in dose-range finding test ([1]; rats 3 animals/sex, single i.v. 14 mg/kg and 25 mg/kg): no adverse clinical signs were noted | Tumor targeting [2]: Excellent tumor targeting | Inhibitory effect on 86 enzyme and receptor targets [3]: No inhibitory effect was observed | tissue uptake [4]: < 2 %ID/g
